Several values for one entry are separate records, joined by “and”; a condition that tells them apart may be missing. Equal values may be shown once.
How the values were obtained:
human CD16a V158 = molecular target: T1, human CD16a V158 (human, UniProt P08637 17-208); test: SPR
T1 construct: also called hCD16aV; hCD16a V158

[1] = molecular target: T2, human NKG2D (recombinant mFc-tagged dimer) (human, UniProt P26718 78-216); test: SPR, average
T2 construct: also called hNKG2D
T2 sequence (looked up): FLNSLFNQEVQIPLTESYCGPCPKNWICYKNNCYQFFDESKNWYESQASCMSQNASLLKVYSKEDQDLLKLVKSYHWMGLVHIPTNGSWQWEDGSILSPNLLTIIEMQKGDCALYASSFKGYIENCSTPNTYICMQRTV
Source text: NKG2D is a native dimer, therefore recombinant mFc-tagged NKG2D dimer was used for this experiment. Two different fits were utilized to obtain the equilibrium affinity data: steady state affinity fit and kinetic fit.

[2] = molecular target: T3, cynomolgus NKG2D (recombinant mFc-tagged dimer) (cynomolgus, UniProt P61252 78-216); test: SPR, average
T3 construct: also called cyno NKG2D
T3 sequence (looked up): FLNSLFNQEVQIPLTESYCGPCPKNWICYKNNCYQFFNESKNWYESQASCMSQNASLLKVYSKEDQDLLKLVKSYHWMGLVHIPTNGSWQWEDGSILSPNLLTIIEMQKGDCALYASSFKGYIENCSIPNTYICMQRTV
Source text: (§1) Two different fits were utilized to obtain the equilibrium affinity data: steady state affinity fit and kinetic fit.

human CD32b = molecular target: T4, human CD32b (human, UniProt P31994 46-217, limits assumed); test: SPR, steady state
T4 construct: also called FcγRIIb
T4 sequence (looked up): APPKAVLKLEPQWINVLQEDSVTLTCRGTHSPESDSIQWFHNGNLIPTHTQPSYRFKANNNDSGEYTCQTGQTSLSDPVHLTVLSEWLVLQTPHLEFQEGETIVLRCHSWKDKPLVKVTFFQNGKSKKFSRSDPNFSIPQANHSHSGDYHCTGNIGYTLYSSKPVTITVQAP

human CD16b = molecular target: T5, human CD16b (human, UniProt O75015 17-200, limits assumed); test: SPR, steady state
T5 construct: also called FcγRIIIb

[3] = molecular target: T6, human BAFF-R expressed on cells (human, UniProt Q96RJ3 1-184); test: KinExA, BAFF-R-CHO cells
T6 construct: Cell surface BAFF-R, endogenous on B cell lines and primary B cells or overexpressed on isogenic CHO cells; also called hBAFF-R; hBAFF-R-CHO

[4] = molecular target: T3, cynomolgus NKG2D (recombinant …); test: SPR, steady state fit
Source text: as §1

[5] = molecular target: T6, human BAFF-R expressed on cells; test: cell-based or functional assay
cynomolgus CD16 = molecular target: T7, cynomolgus CD16 (cynomolgus, UniProt Q8SPW2 17-208, limits assumed); test: SPR, kinetic fit, average
T7 construct: also called Cyno CD16; cynomolgus FcγRIII

[6] = molecular target: T2, human NKG2D (recombinant mFc-tagged …); test: SPR, kinetic fit, control
human CD32a H131 = molecular target: T8, human CD32a H131 (human, UniProt P12318 36-218, limits assumed); test: SPR, steady state, average
T8 sequence (looked up): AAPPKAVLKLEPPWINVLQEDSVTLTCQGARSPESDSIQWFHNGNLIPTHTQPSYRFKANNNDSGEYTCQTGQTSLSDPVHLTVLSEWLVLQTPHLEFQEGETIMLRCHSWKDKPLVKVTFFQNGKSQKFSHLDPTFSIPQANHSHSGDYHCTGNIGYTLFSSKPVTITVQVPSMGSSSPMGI

[7] = molecular target: T2, human NKG2D (recombinant mFc-tagged …); test: SPR, steady state, control
[8] = molecular target: T6, human BAFF-R expressed on cells; test: flow cytometry, Raji cells
cynomolgus FcRn [9] = molecular target: T9, cynomolgus FcRn (cynomolgus, UniProt Q8SPV9 24-297; Q8SPW0 21-119); test: SPR, pH 6.0, summary table
T9 construct: also called Cyno FcRn

[10] = molecular target: T6, human BAFF-R expressed on cells; test: flow cytometry, SUDHL-6 cells
[11] = molecular target: T6, human BAFF-R expressed on cells; test: flow cytometry, BJAB cells, control
[12] = molecular target: T2, human NKG2D (recombinant mFc-tagged …); test: SPR, high concentration sample, control
cynomolgus FcRn [13] = molecular target: T9, cynomolgus FcRn; test: SPR, pH 6.0, steady state; pH 6.0; third replicate
human FcRn = human FcRn (human, UniProt P55899 24-297; P61769 21-119); test: SPR, pH 6.0, steady state; pH 6.0; second replicate
[14] = molecular target: T10, BCMA expressed on C6 cells (UniProt Q02223 1-184, limits assumed); test: flow cytometry on BCMA-C6 cells, anti-human Fc-g-PE
T10 construct: whole, on cells; also called BCMA-C6; isogenic BCMA+ cells
T10 sequence (looked up): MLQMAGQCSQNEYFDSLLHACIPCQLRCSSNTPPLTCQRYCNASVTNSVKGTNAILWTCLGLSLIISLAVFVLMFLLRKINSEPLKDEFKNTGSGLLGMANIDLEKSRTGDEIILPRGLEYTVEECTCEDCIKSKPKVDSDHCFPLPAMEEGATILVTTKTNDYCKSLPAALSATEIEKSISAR
Source text: A mAb with known BCMA specificity (EM901) was used as a positive control for BCMA detection.

cynomolgus FcRn [15] = molecular target: T9, cynomolgus FcRn; test: SPR, pH 6.0, steady state, average; pH 6.0; average of four replicates
[16] = molecular target: T6, human BAFF-R expressed on cells; test: flow cytometry on hBAFFR-CHO cells, anti-human Fc-g-PE, fold over background

T5 sequence (O75015 17-200 limits assumed): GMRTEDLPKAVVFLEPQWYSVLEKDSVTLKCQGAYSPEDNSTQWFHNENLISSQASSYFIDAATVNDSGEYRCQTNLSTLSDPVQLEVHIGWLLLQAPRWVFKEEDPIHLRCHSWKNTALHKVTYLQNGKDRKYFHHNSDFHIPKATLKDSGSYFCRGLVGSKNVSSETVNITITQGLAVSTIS
T9 sequence (Q8SPV9 24-297 limits assumed, chain 1 of 2): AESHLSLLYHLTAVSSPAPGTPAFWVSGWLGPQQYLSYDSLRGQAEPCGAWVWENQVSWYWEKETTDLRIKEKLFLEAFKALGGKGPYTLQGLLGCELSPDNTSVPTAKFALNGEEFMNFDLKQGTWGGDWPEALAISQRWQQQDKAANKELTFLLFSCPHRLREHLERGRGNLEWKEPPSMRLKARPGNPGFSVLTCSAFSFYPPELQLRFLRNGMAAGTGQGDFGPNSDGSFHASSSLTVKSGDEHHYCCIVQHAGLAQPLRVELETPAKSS
T9 sequence (Q8SPW0 21-119 limits assumed, chain 2 of 2): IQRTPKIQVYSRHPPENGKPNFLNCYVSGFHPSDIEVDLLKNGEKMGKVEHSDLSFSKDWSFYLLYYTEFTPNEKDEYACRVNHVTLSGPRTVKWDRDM
T1 sequence (P08637 17-208 F176V limits assumed): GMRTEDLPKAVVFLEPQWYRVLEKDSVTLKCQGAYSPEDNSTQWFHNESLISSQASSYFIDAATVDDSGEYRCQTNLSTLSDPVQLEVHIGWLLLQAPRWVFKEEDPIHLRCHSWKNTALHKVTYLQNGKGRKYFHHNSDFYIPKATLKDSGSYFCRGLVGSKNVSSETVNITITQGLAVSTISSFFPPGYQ
T7 sequence (Q8SPW2 17-208 limits assumed): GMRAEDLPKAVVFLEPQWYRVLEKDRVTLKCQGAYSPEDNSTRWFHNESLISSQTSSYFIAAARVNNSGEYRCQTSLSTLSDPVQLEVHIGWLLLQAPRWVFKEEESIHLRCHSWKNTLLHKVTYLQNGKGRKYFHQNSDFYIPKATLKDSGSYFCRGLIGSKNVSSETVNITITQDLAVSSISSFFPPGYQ

koff (human CD16a V158): 0.014 s⁻¹ and 0.013 s⁻¹
kon (human CD16a V158): 110000 M⁻¹ s⁻¹ and 100000 M⁻¹ s⁻¹
koff [1]: 0.11 s⁻¹
kon [1]: 240000 M⁻¹ s⁻¹
koff [2]: 0.11 s⁻¹
kon [2]: 190000 M⁻¹ s⁻¹
Kd (human CD32b): 5900 nM and 5500 nM and 5800 nM and 6300 nM
Kd (human CD16b): 7000 nM and 6300 nM and 7900 nM and 6400 nM
Kd [3]: 2.55 nM
Kd [4]: 618 nM and 630 nM and 589 nM and 600 nM
Kd (cynomolgus CD16): 271 nM
Kd [6]: 503 nM
Kd (human CD32a H131): 1000 nM
Kd [7]: 544 nM
EC50 [8]: 0.18 nM
Max FOB [8]: 10 fold over background
Kd (cynomolgus FcRn [9]): 1000 nM
EC50 [10]: 0.41 nM
Max FOB [10]: 19 fold over background
EC50 [11]: 0.82 nM
koff [12]: 0.11 s⁻¹
kon [12]: 220000 M⁻¹ s⁻¹
Kd (cynomolgus FcRn [13]): 1000 nM
Kd (human FcRn): 1000 nM
binding result [14]: no binding (tested: about 50 nM)
Kd (cynomolgus FcRn [15]): 1000 nM
EC50 (read off the curve) [16]: ~0.8 nM
B1: AB1424/AB1612 F3′ TriNKET (bispecific antibody, human IgG1, kappa)
chain: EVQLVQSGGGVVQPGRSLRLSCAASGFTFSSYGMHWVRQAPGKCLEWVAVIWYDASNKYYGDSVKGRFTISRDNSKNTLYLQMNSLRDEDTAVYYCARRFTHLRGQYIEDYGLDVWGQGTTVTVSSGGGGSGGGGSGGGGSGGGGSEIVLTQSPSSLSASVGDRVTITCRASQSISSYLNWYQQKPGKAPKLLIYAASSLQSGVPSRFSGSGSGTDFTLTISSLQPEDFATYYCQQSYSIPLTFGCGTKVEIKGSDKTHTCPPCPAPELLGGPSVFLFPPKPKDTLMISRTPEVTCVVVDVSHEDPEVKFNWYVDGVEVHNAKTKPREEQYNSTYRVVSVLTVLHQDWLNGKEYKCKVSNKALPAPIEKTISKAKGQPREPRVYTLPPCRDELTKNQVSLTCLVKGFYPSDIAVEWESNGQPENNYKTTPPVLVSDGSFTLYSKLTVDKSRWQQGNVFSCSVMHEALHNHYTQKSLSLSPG
heavy: EVQLVESGGGLVKPGGSLRLSCAASGFTFSSYSMNWVRQAPGKGLEWVSSISSSSSYIYYADSVKGRFTISRDNAKNSLYLQMNSLRAEDTAVYYCARGAPIGAAAGWFDPWGQGTLVTVSSASTKGPSVFPLAPSSKSTSGGTAALGCLVKDYFPEPVTVSWNSGALTSGVHTFPAVLQSSGLYSLSSVVTVPSSSLGTQTYICNVNHKPSNTKVDKKVEPKSCDKTHTCPPCPAPELLGGPSVFLFPPKPKDTLMISRTPEVTCVVVDVSHEDPEVKFNWYVDGVEVHNAKTKPREEQYNSTYRVVSVLTVLHQDWLNGKEYKCKVSNKALPAPIEKTISKAKGQPREPQVCTLPPSRDELTENQVSLTCLVKGFYPSDIAVEWESNGQPENNYKTTPPVLDSDGSFFLYSWLTVDKSRWQQGNVFSCSVMHEALHNHYTQKSLSLSPG
light: DIQMTQSPSSVSASVGDRVTITCRASQGISSWLAWYQQKPGKAPKLLIYAASSLQSGVPSRFSGSGSGTDFTLTISSLQPEDFATYYCQQGVSFPRTFGGGTKVEIKRTVAAPSVFIFPPSDEQLKSGTASVVCLLNNFYPREAKVQWKVDNALQSGNSQESVTEQDSKDSTYSLSSTLTLSKADYEKHKVYACEVTHQGLSSPVTKSFNRGEC
notes: Chain S: anti-BAFF-R scFv-CH2-CH3; chain H: anti-NKG2D VH-CH1-CH2-CH3; chain L: anti-NKG2D VL-CL; also called AB1612-002
KHYG-1-CD16a cytotoxicity on BJAB cells, EC50 [5]: 0.03 nM
